# Assay results: patent publication US10525110B2, “Methods for inducing partial apoptosis using caspase polypeptides” (Bellicum Pharmaceuticals, Inc., priority 2013, dated 2020)
# Entries after “also recorded” stand apart in the source; their conditions may differ.
# Tested on: HEK293T/16 cells
# Assay: Secreted alkaline phosphatase (SEAP) reporter-based surrogate killing assay
# Type: cell-based, human
# Conditions: AP1903-independent SEAP activity, relative to wild type
# Description: FIG. 45 provides an analysis of SEAP assays. To examine both basal signaling and AP1903 induced activity, […] early-passage HEK293T/16 cells were co-transfected with various amount of wildtype Caspase and 500 ng of an expression plasmid that uses an SRα promoter to drive SEAP, a marker for cell viability. […] of the mixture was seeded onto each well of a 96-well plate. 100-ul of AP1903 was added at least three hours post-transfection. After addition of AP1903 for at least 24 hours, 100-ul of supernatant was transferred to a 96-well plate and heat denatured at 68 ? C for 30 minutes to inactivate endogenous alkaline phosphatases. For the assay, 4-methylumbelliferyl phosphate substrate was hydrolyzed by SEAP to 4-methylumbelliferon, a metabolite that can be excited with 364 nm and detected with an emission filter of 448 nm. Since SEAP is used as a marker for cell viability, reduced SEAP reading corresponds with increased icaspase-9 activities.
# (50A) To examine both basal signaling and AP1903-induced CaspaClDe activity, 10^6 early-passage HEK293T/17 cells were co-transfected with 2 μg of inducible caspase variants along with 500 ng of an expression plasmid using an SRα promoter to transcriptionally regulate SEAP, a surrogate marker for cell viability. 200-μl of the transfection mixture containing plasmids, GeneJammer and HEK293T/17 cells in IMDM+10% FBS (without antibiotics) was seeded into each well of a 96-well plate. To induce caspase activity, 22 μl of serially diluted AP1903 was added 24 hours post-transfection. (50B) To examine basal and AP1903 induced signaling, 100 μl of supernatant was harvested 48 hours post-treatment and heat-denatured at 68° C. for 1 hour to inactivate endogenous alkaline phosphatases. For the assay, 4-methylumbelliferyl phosphate (4-MUP) substrate was hydrolyzed by SEAP to 4-methylumbelliferon, a metabolite with peak excitation at 364 nm and peak emission at 448 nm. Since SEAP is used as a surrogate marker for cell viability, a reduced SEAP reading corresponds to increased caspase-9 activity.
# Early passage HEK293T/16 cells (ATCC, Manassas, Va.) were maintained in IMDM, GlutaMAX™ (Life Technologies, Carlsbad, Calif.) supplemented with 10% FBS, 100 U/mL penicillin, and 100 […] until transfection in a humidified, 37° C., 5% CO2/95% air atmosphere. Cells in logarithmic-phase growth were transiently transfected with 800 ng to 2 μg of expression plasmid encoding iCasp9 mutants and 500 ng of an expression plasmid encoding SRα promoter driven SEAP per million cells in 15-mL conical tubes. […] GeneJammer® Transfection Reagent at a ratio of 3 μl per ug of plasmid DNA was used to transiently transfect HEK293T/16 cells in the absence of antibiotics. 100 μl or 2 mL of the transfection mixture was added to each well in 96-well or 6-well plate, respectively. For SEAP assays, log dilutions of AP1903 were added after a minimum 3-hour incubation post-transfection. For western blots, cells were incubated for 20 minutes with AP1903 (10 nM) before harvesting.
# Twenty-four to forty-eight hours after AP1903 treatment, ˜100 μl of supernatants were harvested into a 96-well plate and assayed for SEAP activity as described. Briefly, after 65° C. heat denaturation for 45 minutes to reduce background caused by endogenous (and serum-derived) alkaline phosphatases that are sensitive to heat, 5 μl of supernatants was added to 95 μl of PBS and added to 100 μl of substrate buffer, containing 1 μl of 100 mM 4-methylumbelliferyl phosphate (4-MUP; Sigma, St. Louis, Mo.) re-suspended in 2 M diethanolamine. Hydrolysis of 4-MUP by SEAP produces a fluorescent […] with excitation/emission (355/460 nm), which can be easily measured. Assays were performed in black opaque 96-well plates to minimize fluorescence leakage between wells (FIG. 45).
row,Molecule,basal activity / basal signaling (in words)
1,F404Y: chimeric modified caspase-9 polypeptide (protein) VDGFGDVGALESLRGNADLAYILSMEPCGHCLIINNVNFCRESGLRTRTGSNIDCEKLRRRFSSLHFMVEVKGDLTAKKMVLALLELARQDHGALDCCVVVILSHGCQASHLQFPGAVYGTDGCPVSVEKIVNIFNGTSCPSLGGKPKLFFIQACGGEQKDHGFEVASTSPEDESPGSNPEPDATPFQEGLRTFDQLDAISSLPTPSDIFVSYSTFPGFVSWRDPKSGSWYVETLDDIFEQWAHSEDLQSLLLRVANAVSVKGIYKQMPGCYNFLRKKLFFKTSASRA,lower basal signaling; also recorded: lowered basal activity
2,D330N: chimeric modified caspase-9 polypeptide (protein) VDGFGDVGALESLRGNADLAYILSMEPCGHCLIINNVNFCRESGLRTRTGSNIDCEKLRRRFSSLHFMVEVKGDLTAKKMVLALLELARQDHGALDCCVVVILSHGCQASHLQFPGAVYGTDGCPVSVEKIVNIFNGTSCPSLGGKPKLFFIQACGGEQKDHGFEVASTSPEDESPGSNPEPDATPFQEGLRTFDQLNAISSLPTPSDIFVSYSTFPGFVSWRDPKSGSWYVETLDDIFEQWAHSEDLQSLLLRVANAVSVKGIYKQMPGCFNFLRKKLFFKTSASRA,less basal activity than wildtype caspase-9
3,F404W: chimeric modified caspase-9 polypeptide (protein) VDGFGDVGALESLRGNADLAYILSMEPCGHCLIINNVNFCRESGLRTRTGSNIDCEKLRRRFSSLHFMVEVKGDLTAKKMVLALLELARQDHGALDCCVVVILSHGCQASHLQFPGAVYGTDGCPVSVEKIVNIFNGTSCPSLGGKPKLFFIQACGGEQKDHGFEVASTSPEDESPGSNPEPDATPFQEGLRTFDQLDAISSLPTPSDIFVSYSTFPGFVSWRDPKSGSWYVETLDDIFEQWAHSEDLQSLLLRVANAVSVKGIYKQMPGCWNFLRKKLFFKTSASRA,lower basal signaling; also recorded: lowered basal activity
4,S144A: chimeric modified caspase-9 polypeptide (protein) VDGFGDVGALEALRGNADLAYILSMEPCGHCLIINNVNFCRESGLRTRTGSNIDCEKLRRRFSSLHFMVEVKGDLTAKKMVLALLELARQDHGALDCCVVVILSHGCQASHLQFPGAVYGTDGCPVSVEKIVNIFNGTSCPSLGGKPKLFFIQACGGEQKDHGFEVASTSPEDESPGSNPEPDATPFQEGLRTFDQLDAISSLPTPSDIFVSYSTFPGFVSWRDPKSGSWYVETLDDIFEQWAHSEDLQSLLLRVANAVSVKGIYKQMPGCFNFLRKKLFFKTSASRA,lower basal activity
5,D330G: chimeric modified caspase-9 polypeptide (protein) VDGFGDVGALESLRGNADLAYILSMEPCGHCLIINNVNFCRESGLRTRTGSNIDCEKLRRRFSSLHFMVEVKGDLTAKKMVLALLELARQDHGALDCCVVVILSHGCQASHLQFPGAVYGTDGCPVSVEKIVNIFNGTSCPSLGGKPKLFFIQACGGEQKDHGFEVASTSPEDESPGSNPEPDATPFQEGLRTFDQLGAISSLPTPSDIFVSYSTFPGFVSWRDPKSGSWYVETLDDIFEQWAHSEDLQSLLLRVANAVSVKGIYKQMPGCFNFLRKKLFFKTSASRA,less basal activity than wildtype caspase-9
6,F406T: chimeric modified caspase-9 polypeptide (protein) VDGFGDVGALESLRGNADLAYILSMEPCGHCLIINNVNFCRESGLRTRTGSNIDCEKLRRRFSSLHFMVEVKGDLTAKKMVLALLELARQDHGALDCCVVVILSHGCQASHLQFPGAVYGTDGCPVSVEKIVNIFNGTSCPSLGGKPKLFFIQACGGEQKDHGFEVASTSPEDESPGSNPEPDATPFQEGLRTFDQLDAISSLPTPSDIFVSYSTFPGFVSWRDPKSGSWYVETLDDIFEQWAHSEDLQSLLLRVANAVSVKGIYKQMPGCFNTLRKKLFFKTSASRA,lower basal signaling; also recorded: lowered basal activity
7,D330S: chimeric modified caspase-9 polypeptide (protein) VDGFGDVGALESLRGNADLAYILSMEPCGHCLIINNVNFCRESGLRTRTGSNIDCEKLRRRFSSLHFMVEVKGDLTAKKMVLALLELARQDHGALDCCVVVILSHGCQASHLQFPGAVYGTDGCPVSVEKIVNIFNGTSCPSLGGKPKLFFIQACGGEQKDHGFEVASTSPEDESPGSNPEPDATPFQEGLRTFDQLSAISSLPTPSDIFVSYSTFPGFVSWRDPKSGSWYVETLDDIFEQWAHSEDLQSLLLRVANAVSVKGIYKQMPGCFNFLRKKLFFKTSASRA,less basal activity than wildtype caspase-9
8,D330V: chimeric modified caspase-9 polypeptide (protein) VDGFGDVGALESLRGNADLAYILSMEPCGHCLIINNVNFCRESGLRTRTGSNIDCEKLRRRFSSLHFMVEVKGDLTAKKMVLALLELARQDHGALDCCVVVILSHGCQASHLQFPGAVYGTDGCPVSVEKIVNIFNGTSCPSLGGKPKLFFIQACGGEQKDHGFEVASTSPEDESPGSNPEPDATPFQEGLRTFDQLVAISSLPTPSDIFVSYSTFPGFVSWRDPKSGSWYVETLDDIFEQWAHSEDLQSLLLRVANAVSVKGIYKQMPGCFNFLRKKLFFKTSASRA,less basal activity than wildtype caspase-9
9,F406L: chimeric modified caspase-9 polypeptide (protein) VDGFGDVGALESLRGNADLAYILSMEPCGHCLIINNVNFCRESGLRTRTGSNIDCEKLRRRFSSLHFMVEVKGDLTAKKMVLALLELARQDHGALDCCVVVILSHGCQASHLQFPGAVYGTDGCPVSVEKIVNIFNGTSCPSLGGKPKLFFIQACGGEQKDHGFEVASTSPEDESPGSNPEPDATPFQEGLRTFDQLDAISSLPTPSDIFVSYSTFPGFVSWRDPKSGSWYVETLDDIFEQWAHSEDLQSLLLRVANAVSVKGIYKQMPGCFNLLRKKLFFKTSASRA,lowered basal activity

# Tested on: Activated T cells
# Assay: Control of proliferation of iCasp9-mutant-transduced T cells over 10 days
# Type: cell-based
# Conditions: AP1903 on days 0 and 4
# Description: FIG. 63: iCasp9 mutants with lower sensitivity to AP1903 still control T cell proliferation in vitro. Activated T cells were transduced with retrovirus containing iCasp9 mutants and treated with AP1903 (arrow) on days 0 and 4 and subsequently enumerated for 10 days.
row,Molecule,control of T cell proliferation and survival within 10 days (in words)
1,F404Y: chimeric modified caspase-9 polypeptide (protein) VDGFGDVGALESLRGNADLAYILSMEPCGHCLIINNVNFCRESGLRTRTGSNIDCEKLRRRFSSLHFMVEVKGDLTAKKMVLALLELARQDHGALDCCVVVILSHGCQASHLQFPGAVYGTDGCPVSVEKIVNIFNGTSCPSLGGKPKLFFIQACGGEQKDHGFEVASTSPEDESPGSNPEPDATPFQEGLRTFDQLDAISSLPTPSDIFVSYSTFPGFVSWRDPKSGSWYVETLDDIFEQWAHSEDLQSLLLRVANAVSVKGIYKQMPGCYNFLRKKLFFKTSASRA,can kill target T cells indistinguishable from wildtype caspase-9 polypeptide or D330A within 10 days
